Reference: the Immune Epitope Database (IEDB)

Key:
[1] = target: HLA-C*06:02; test: IEDB peptide-MHC binding, purified MHC/direct/fluorescence; filed as Kd, often an IC50 or EC50 that approximates it; ≥ and ≤ were set here for values at or beyond the usual limits of such assays
[2] = target: HLA-C*15:02; test: as above
[3] = target: HLA-A*01:01; test: as above
[4] = target: HLA-A*02:01; test: as above
[5] = target: HLA-A*03:01; test: as above
[6] = target: HLA-A*24:03; test: as above; details: source organism: Tick-borne encephalitis virus
[7] = target: HLA-A*26:01; test: as above
[8] = target: HLA-A*31:01; test: as above
[9] = target: HLA-B*07:02; test: as above
[10] = target: HLA-B*08:01; test: as above
[11] = target: HLA-B*15:01; test: as above; details: source organism: Alkhumra hemorrhagic fever virus
[12] = target: HLA-B*27:05; test: as above
[13] = target: HLA-B*35:01; test: as above
[14] = target: HLA-B*40:01; test: as above
[15] = target: HLA-B*44:02; test: as above
[16] = target: HLA-B*58:01; test: as above
[17] = target: HLA-A*29:02; test: IEDB peptide-MHC binding, purified MHC/competitive/fluorescence; filed as Kd, often an IC50 or EC50 that approximates it; ≥ and ≤ were set here for values at or beyond the usual limits of such assays
[18] = target: HLA-A*02:01; test: as above
[19] = target: HLA-A*02:03; test: as above; details: source organism: Vibrio parahaemolyticus K5030
[20] = target: HLA-A*02:11; test: as above; details: source organism: Vibrio parahaemolyticus K5030
[21] = target: HLA-A*02:12; test: as above
[22] = target: HLA-A*02:19; test: as above
[23] = target: HLA-A*03:01; test: as above
[24] = target: HLA-A*26:01; test: as above
[25] = target: HLA-B*15:01; test: as above; details: source organism: Vibrio parahaemolyticus K5030
[26] = target: HLA-B*18:01; test: as above
[27] = target: HLA-B*27:03; test: as above
[28] = target: HLA-B*39:01; test: as above
[29] = target: HLA-B*46:01; test: as above
[30] = target: HLA-B*51:01; test: as above
[31] = target: HLA-B*57:01; test: as above
[32] = target: HLA-A*68:02; test: IEDB peptide-MHC binding, purified MHC/direct/fluorescence; filed as Kd, often an IC50 or EC50 that approximates it; ≥ and ≤ were set here for values at or beyond the usual limits of such assays; details: source organism: Limestone Canyon virus
[33] = target: HLA-A*11:01; test: as above
[34] = target: HLA-A*69:01; test: as above
[35] = target: HLA-B*18:01; test: as above; details: source organism: Escherichia coli O157:H7
[36] = target: HLA-B*48:01; test: as above; details: source organism: Escherichia coli O157:H7
[37] = target: HLA-B*57:01; test: as above
[38] = target: HLA-A*68:02; test: IEDB peptide-MHC binding, purified MHC/competitive/fluorescence; filed as Kd, often an IC50 or EC50 that approximates it; ≥ and ≤ were set here for values at or beyond the usual limits of such assays; details: source organism: Escherichia coli HS
[39] = target: HLA-B*15:17; test: as above
[40] = target: HLA-A*01:01; test: as above; details: source organism: Homo sapiens
[41] = source organism: Alkhumra hemorrhagic fever virus
[42] = source organism: Tick-borne encephalitis virus
[43] = source organism: Vaccinia virus Copenhagen
[44] = source organism: Vibrio parahaemolyticus K5030
[45] = source organism: Orthohantavirus puumalaense
[46] = source organism: Camelpox virus M-96
[47] = source organism: Vaccinia virus WR
[48] = source organism: Escherichia coli O157:H7
[49] = source organism: Vibrio cholerae
[50] = source organism: Canarypox virus

## YLNDFAQLL
[1]; source organism: Mycobacterium tuberculosis str. Haarlem
  Kd: 0.025 µM

## TNFEFFGKL
[2]; source organism: Caenorhabditis elegans
  Kd: 1.6 µM

## WPWNAREDV
[3]; [41]
  Kd: ≥ 20 µM
[4]; [41]
  Kd: ≥ 20 µM
[5]; [41]
  Kd: ≥ 20 µM
[6]
  Kd: 5.29 µM
[7]; [41]
  Kd: ≥ 20 µM
[8]; [41]
  Kd: ≥ 20 µM
[9]; [42]
  Kd: 0.466 µM
[10]; [42]
  Kd: 7.65 µM
[11]
  Kd: ≥ 20 µM
[12]; [41]
  Kd: ≥ 20 µM
[13]; [42]
  Kd: 0.103 µM
[14]; [41]
  Kd: ≥ 20 µM
[15]; [41]
  Kd: ≥ 20 µM
[16]; [41]
  Kd: ≥ 20 µM

## FGMPNPEGY
[17]; source organism: Desulfuromonas acetoxidans DSM 684
  Kd: 0.0231 µM

## YLHPKDKYL
[1]; [43]
  Kd: 2.08 µM
[18]; [43]
  Kd: 0.0125 µM

## AGGWVLWKV
[18]; [44]
  Kd: ≥ 20 µM
[19]
  Kd: ≥ 20 µM
[20]
  Kd: 0.0015 µM
[21]; [44]
  Kd: ≥ 20 µM
[22]; [44]
  Kd: ≥ 20 µM
[23]; [44]
  Kd: ≥ 20 µM
[24]; [44]
  Kd: ≥ 20 µM
[17]; [44]
  Kd: ≥ 20 µM
[25]
  Kd: ≥ 20 µM
[26]; [44]
  Kd: ≥ 20 µM
[27]; [44]
  Kd: ≥ 20 µM
[28]; [44]
  Kd: ≥ 20 µM
[29]; [44]
  Kd: ≥ 20 µM
[30]; [44]
  Kd: ≥ 20 µM
[31]; [44]
  Kd: ≥ 20 µM

## IILKALYML
[4]; [45]
  Kd: 0.0074 µM
[5]; source organism: Limestone Canyon virus
  Kd: ≥ 20 µM
[32]
  Kd: ≥ 20 µM
[24]; [45]
  Kd: ≥ 20 µM
[26]; [45]
  Kd: ≥ 20 µM
[27]; [45]
  Kd: ≥ 20 µM
[28]; [45]
  Kd: ≥ 20 µM
[29]; [45]
  Kd: ≥ 20 µM
[30]; [45]
  Kd: ≥ 20 µM
[31]; [45]
  Kd: ≥ 20 µM

## FRYMNSQGL
[5]; source organism: SARS-CoV1
  Kd: ≥ 36.3 µM
[33]; source organism: SARS-CoV1
  Kd: ≥ 21.9 µM
[10]; source organism: SARS-CoV1
  Kd: 7.93 µM
[12]; source organism: SARS-CoV1
  Kd: 0.0513 µM
[14]; source organism: SARS-CoV1
  Kd: ≥ 45.5 µM
[1]; source organism: SARS-CoV1
  Kd: 0.002 µM

## WYYDFHFFV
[4]; [46]
  Kd: 0.391 µM
[34]; [46]
  Kd: 0.27 µM
[1]; [47]
  Kd: ≥ 20 µM

## GEIFGLLGP
[3]; [48]
  Kd: ≥ 20 µM
[4]; [48]
  Kd: ≥ 20 µM
[33]; [48]
  Kd: ≥ 20 µM
[8]; [48]
  Kd: ≥ 20 µM
[34]; [48]
  Kd: ≥ 20 µM
[9]; [48]
  Kd: ≥ 20 µM
[35]
  Kd: 0.101 µM
[12]; [48]
  Kd: ≥ 20 µM
[14]; [48]
  Kd: 0.019 µM
[15]; [48]
  Kd: ≥ 20 µM
[36]
  Kd: ≥ 20 µM
[37]; [48]
  Kd: ≥ 20 µM
[16]; [48]
  Kd: ≥ 20 µM
[38]
  Kd: 2.64 µM
[39]; source organism: Escherichia coli HS
  Kd: 1.12 µM

## KEDPGDHIF
[3]; [49]
  Kd: ≥ 20 µM
[4]; [49]
  Kd: ≥ 20 µM
[5]; [49]
  Kd: ≥ 20 µM
[33]; [49]
  Kd: ≥ 20 µM
[7]; [49]
  Kd: ≥ 20 µM
[8]; [49]
  Kd: ≥ 20 µM
[34]; [49]
  Kd: ≥ 20 µM
[9]; [49]
  Kd: ≥ 20 µM
[10]; [49]
  Kd: ≥ 20 µM
[12]; [49]
  Kd: ≥ 20 µM
[13]; [49]
  Kd: 0.224 µM
[14]; [49]
  Kd: 0.0249 µM
[15]; [49]
  Kd: ≥ 20 µM
[16]; [49]
  Kd: ≥ 20 µM

## GRYYVLQFV
[1]; source organism: Listeria monocytogenes J0161
  Kd: 0.301 µM

## HLGGFVHAC
[21]; source organism: Haemophilus influenzae
  Kd: 0.0268 µM

## YFEYIEENKY
[40]
  Kd: 1.56 µM
[17]; source organism: Homo sapiens
  Kd: ≤ 0.0001 µM

## YMMDGNECP
[18]; [50]
  Kd: 0.247 µM
[22]; [50]
  Kd: 0.2 µM
[23]; [50]
  Kd: ≥ 20 µM
[24]; [50]
  Kd: ≥ 20 µM
[17]; [50]
  Kd: ≥ 20 µM
[39]; [50]
  Kd: ≥ 20 µM
[26]; [50]
  Kd: ≥ 20 µM
[27]; [50]
  Kd: ≥ 20 µM
[28]; [50]
  Kd: ≥ 20 µM
[29]; [50]
  Kd: ≥ 20 µM
[30]; [50]
  Kd: ≥ 20 µM
[31]; [50]
  Kd: ≥ 20 µM

## KSLVQYIKF
[37]; [46]
  Kd: 0.508 µM
[16]; [46]
  Kd: 0.0635 µM
[2]; [47]
  Kd: ≥ 20 µM
